{"source": "paper PMC8892312", "about": "(Proceedings of the National Academy of Sciences of the …, 2022)", "binders": {"B1": {"name": "HBsu (histone-like protein HU of B. subtilis), recombinant (natural protein)", "chain": "MNKTELINAVAEASELSKKDATKAVDSVFDTILDALKNGDKIQLIGFGNFEVRERSARKGRNPQTGEEIEIPASKVPAFKPGKALKDAVAGK"}, "B2": {"name": "Gp46 from bacteriophage SPO1 (natural protein)", "chain": "MMTEDQKFKYLTKIEELEAGCFSDWTKEDITGDLKYLKKGIIEESIELIRAVNGLTYSEELHDFTQEIIEELDISPL"}}, "key": {"HBsu (HU of B. subtilis)": {"target": "T1, HBsu (HU of B. subtilis) (Bacillus subtilis, UniProt P08821 1-92)", "T1 sequence": "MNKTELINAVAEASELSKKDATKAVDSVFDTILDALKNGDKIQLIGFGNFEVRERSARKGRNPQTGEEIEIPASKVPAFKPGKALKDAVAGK", "assay": "ITC"}, "SEC-MALS": {"target": "the molecule itself", "assay": "SEC-MALS"}, "HBsu^R53N/R55N/R58N": {"target": "T2, HBsu^R53N/R55N/R58N (Bacillus subtilis, UniProt P08821 1-92, R53N | R55N | R58N)", "T2 sequence": "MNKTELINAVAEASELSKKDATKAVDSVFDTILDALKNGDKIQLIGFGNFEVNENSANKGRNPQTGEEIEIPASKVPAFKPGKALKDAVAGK", "assay": "ITC"}, "HBsu^I71A": {"target": "T3, HBsu^I71A (Bacillus subtilis, UniProt P08821 1-92, I71A)", "T3 sequence": "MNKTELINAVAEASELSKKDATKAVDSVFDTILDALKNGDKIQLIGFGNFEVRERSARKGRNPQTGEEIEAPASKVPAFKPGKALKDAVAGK", "assay": "ITC"}, "[1]": {"target": "B1", "assay": "ITC"}, "[2]": {"target": "B1", "assay": "SPR"}, "[3]": {"target": "HU of Acinetobacter baumannii (Acinetobacter baumannii)", "assay": "ITC"}, "[4]": {"target": "B2", "assay": "ITC"}, "[5]": {"target": "B1", "assay": "ITC", "remark": "listed apart in the source"}}}
{"binder": "dsDNA (DNA1/DNA2) (dsDNA) DNA 1: TGCTTATCAATTTGTTGCACC DNA 2: GGTGCAACAAATTGATAAGCA", "values": [{"measurement": "Kd", "setting": "HBsu (HU of B. subtilis)", "value": "359 ± 38", "unit": "nM"}]}
{"binder": "B1", "values": [{"measurement": "binding result", "setting": "SEC-MALS", "value": "binds"}]}
{"binder": "B2", "values": [{"measurement": "binding result", "setting": "HBsu^R53N/R55N/R58N", "value": "binds"}, {"measurement": "Kd", "setting": "HBsu^I71A", "value": "6410 ± 3540", "unit": "nM"}, {"measurement": "Kd", "setting": "[1]", "value": "277 ± 50", "unit": "nM"}, {"measurement": "Kd", "setting": "[2]", "value": "5870 ± 110", "unit": "nM"}, {"measurement": "Kd", "setting": "[3]", "value": 300, "unit": "nM"}]}
{"binder": "HU of Plasmodium falciparum (natural protein) RRAFINVHKNNIINNKLSVNNPYNKNALYQSSSKIPMSQAITKKQIIEEVSMETKENKKTVEKIMNGIFDNIYKHLENNEKIYIHKFGMFYNIFRKKRCIKNLRTKEDIEIESSHMPHFKFSKVFKELIKQNVKVKKGKGVSTNDHDLDEDDMNMDNINESFKENVNEKLIY", "values": [{"measurement": "Kd", "setting": "[4]", "value": "~300", "unit": "nM"}]}
{"binder": "Gp46^D63N (natural protein) MMTEDQKFKYLTKIEELEAGCFSDWTKEDITGDLKYLKKGIIEESIELIRAVNGLTYSEELHNFTQEIIEELDISPL", "values": [{"measurement": "binding result", "setting": "[5]", "value": "binds"}]}
